Measured values taken from US20180282373A1 (RESEARCH FOUNDATION FOR THE STATE UNIVERSITY OF NEW YORK, published 2018).

What was measured:
[1] = biological target: T1, purified recombinant full-length WDR5 (UniProt P61964 2-334); assay: ITC at 20 C, Win6mer (200 µM) titrated into full-length WDR5 (20 µM); 95% confidence interval 1.7-4.2 nM
Method: (§1) In the present disclosure, we synthesized a six-residue peptidomimetic.
(§2) Isothermal titration calorimetry (ITC). […] ITC experiments were carried out at 20° C. using a VP-ITC micro-calorimeter (MicroCal). […] Reference power was set to 10 μCal/sec and stirring speed was set to 295 rpm. Data were integrated using NITPIC. SEDPHAT was used to fit the integrated data to a single-site heterogeneous association model, using simulated annealing and Maxquardt-Levenberg algorithms. Automatic confidence interval search with projection method was applied to estimate the error of the determined thermodynamic parameters. Confidence interval was set to 2σ (95%). ITC figure was generated using GUSSI.

[2] = biological target: T1, purified recombinant full-length WDR5; assay: cell-based or functional assay
[3] = biological target: T1, purified recombinant full-length WDR5; assay: cell-based or functional assay; remark: listed apart in the source
[4] = biological target: T1, purified recombinant full-length WDR5; assay: ITC, Kd compared with Table I
Method: as §1, §2

[5] = biological target: T1, purified recombinant full-length WDR5; assay: GST pull-down with purified WDR5, Coomassie-stained gel
[6] = biological target: endogenous WDR5 (MCF-7 cell extracts; T-REx HEK293 nuclear extracts) (human, UniProt P61964 2-334); assay: anti-Flag co-immunoprecipitation from T-REx HEK293 cells, Western blot
Method: Co-immunoprecipitation from mammalian cells. […] Following induction with doxycycline, nuclear extracts were prepared as described and incubated with anti-Flag M2 agarose beads (Sigma) for 3 h. Bound proteins were eluted with SDS sample buffer after extensive washing and analyzed by Western blotting.

B1: Win6mer, Ac-ARTEVY-NH2 (SEQ ID NO:8, N-terminus acetylated and C-terminus amidated) (peptide)
peptide: Ac-ARTEVY-NH2
notes: Synthesized by GenScript; also called 6-mer Win motif peptidomimetic
- Kd [1]: 0.0029 µM
- IC50, inhibition of MLL1 core complex, 0.5 µM enzyme complex assayed [2]: 0.3 µM
- IC50, inhibition of MLL1 core complex, 1 µM enzyme complex assayed [2]: 0.8 µM
- IC50, inhibition of MLL1 core complex, 1.8 µM enzyme complex assayed [2]: 2.2 µM
- average IC50, inhibition of MLL1 core complex (2 µM of enzyme complex assayed) [2]: 2.2 µM
- average IC50, inhibition of SETd1A core complex (2 µM of enzyme complex assayed) [2]: 2.5 µM
- IC50, inhibition of MLL1 core complex methyltransferase activity, H3K4me0 substrate (scintillation proximity assay) [3]: 2.3 µM
- IC50, inhibition of MLL1 core complex methyltransferase activity, H3K4me1 substrate (scintillation proximity assay) [3]: 2.2 µM
- IC50, inhibition of SETd1A core complex methyltransferase activity, H3K4me0 substrate (scintillation proximity assay) [3]: 3.2 µM
- IC50, inhibition of SETd1A core complex methyltransferase activity, H3K4me1 substrate (scintillation proximity assay) [3]: 2.9 µM
- IC50, inhibition of SETd1A core complex methyltransferase activity, H3K4me2 substrate (scintillation proximity assay) [3]: 2.4 µM
- fold increase in binding affinity over the best naturally occurring Win motif sequence [4]: ~18 fold

B2: GST-tagged SETd1B Win-SET domain, Setd1B(1727-1966), R1748A (enzyme)
chain: LSSAKKKKRDDGIREHVTGCAASEGFYTIDKKDKLRYLNSSRASTDEPPADTQGMSIPAQPHASTRAGSERRSEQRRLLSSFTGSCDSDLLKFNQLKFRKKKLKFCKSHIHDWGLFAMEPIAADEMVIEYVGQNIRQVIADMREKRYEDEGIGSSYMFRVDHDTIIDATKCGNFARFINHSCNPNCYAKVITVESQKKIVIYSKQHINVNEEITYDYKFPIEDVKIPCLCGSENCRGTLN
notes: also called SETd1B^R1748A; SETd1B Win motif mutant; not shown: GST tag of the pGST parallel vector, with its linker, at the N end
- binding result [5]: no binding (tested: 3 µM)

B3: Flag-tagged full-length human SETd1B, Win motif arginine to alanine mutant (enzyme)
chain: MENSHPPHHHHQQPPPQPGPSGERRNHHWRSYKLMIDPALKKGHHKLYRYDGQHFSLAMSSNRPVEIVEDPRVVGIWTKNKELELSVPKFKIDEFYVGPVPPKQVTFAKLNDNIRENFLRDMCKKYGEVEEVEILYNPKTKKHLGIAKVVFATVRGAKDAVQHLHSTSVMGNIIHVELDTKGETRMRFYELLVTGRYTPQTLPVGELDAVSPIVNETLQLSDALKRLKDGGLSAGCGSGSSSVTPNSGGTPFSQDTAYSSCRLDTPNSYGQGTPLTPRLGTPFSQDSSYSSRQPTPSYLFSQDPAVTFKARRHESKFTDAYNRRHEHHYVHNSPAVTAVAGATAAFRGSSDLPFGAVGGTGGSSGPPFKAQPQDSATFAHTPPPAQATPAPGFKSAFSPYQTPVAHFPPPPEEPTATAAFGARDSGEFRRAPAPPPLPPAEPLAKEKPGTPPGPPPPDTNSMELGGRPTFGWSPEPCDSPGTPTLESSPAGPEKPHDSLDSRIEMLLKEQRTKLLFLREPDSDTELQMEGSPISSSSSQLSPLAPFGTNSQPGFRGPTPPSSRPSSTGLEDISPTPLPDSDEDEELDLGLGPRPPPEPGPPDPAGLLSQTAEVALDLVGDRTPTSEKMDEGQQSSGEDMEISDDEMPSAPITSADCPKPMVVTPGAAAVAAPSVLAPTLPLPPPPGFPPLPPPPPPPPPQPGFPMPPPLPPPPPPPPPAHPAVTVPPPPLPAPPGVPPPPILPPLPPFPPGLFPVMQVDMSHVLGGQWGGMPMSFQMQTQVLSRLMTGQGACPYPPFMAAAAAAASAGLQFVNLPPYRGPFSLSNSGPGRGQHWPPLPKFDPSVPPPGYMPRQEDPHKATVDGVLLVVLKELKAIMKRDLNRKMVEVVAFRAFDEWWDKKERMAKASLTPVKSGEHKDEDRPKPKDRIASCLLESWGKGEGLGYEGLGLGIGLRGAIRLPSFKVKRKEPPDTTSSGDQKRLRPSTSVDEEDEESERERDRDMADTPCELAKRDPKGVGVRRRPARPLELDSGGEEDEKESLSASSSSSASSSSGSSTTSPSSSASDKEEEQESTEEEEEAEEEEEEEVPRSQLSSSSTSSTSDKDDDDDDSDDRDESENDDEDTALSEASEKDEGDSDEEETVSIVTSKAEATSSSESSESSEFESSSESSPSSSEDEEEVVAREEEEEEEEEEMVAEESMASAGPEDFEQDGEEAALAPGAPAVDSLGMEEEVDIETEAVAPEERPSMLDEPPLPVGVEEPADSREPPEEPGLSQEGAMLLSPEPPAKEVEARPPLSPERAPEHDLEVEPEPPMMLPLPLQPPLPPPRPPRPPSPPPEPETTDASHPSVPPEPLAEDHPPHTPGLCGSLAKSQSTETVPATPGGEPPLSGGSSGLSLSSPQVPGSPFSYPAPSPSLSSGGLPRTPGRDFSFTPTFSEPSGPLLLPVCPLPTGRRDERSGPLASPVLLETGLPLPLPLPLPLPLALPAVLRAQARAPTPLPPLLPAPLASCPPPMKRKPGRPRRSPPSMLSLDGPLVRPPAGAALGRELLLLPGQPQTPVFPSTHDPRTVTLDFRNAGIPAPPPPLPPQPPPPPPPPPVEPTKLPFKELDNQWPSEAIPPGPRGRDEVTEEYMELAKSRGPWRRPPKKRHEDLVPPAGSPELSPPQPLFRPRSEFEEMTILYDIWNGGIDEEDIRFLCVTYERLLQQDNGMDWLNDTLWVYHPSTSLSSAKKKKRDDGIREHVTGCAASEGFYTIDKKDKLRYLNSSRASTDEPPADTQGMSIPAQPHASTRAGSERRSEQRRLLSSFTGSCDSDLLKFNQLKFRKKKLKFCKSHIHDWGLFAMEPIAADEMVIEYVGQNIRQVIADMREKRYEDEGIGSSYMFRVDHDTIIDATKCGNFARFINHSCNPNCYAKVITVESQKKIVIYSKQHINVNEEITYDYKFPIEDVKIPCLCGSENCRGTLN
notes: mature; also called SETd1B Win motif mutant (full-length); not shown: Flag tag
- binding result [6]: no binding
